Results on five molecules are retold here after doi:10.1101/2025.08.11.669663 (bioRxiv, 2025).

The labels stand for the following.
B3: catalase (CAT) (natural protein, human (endogenous in HeLa), UniProt P04040 1-527, looked up)
chain: MADSRDPASDQMQHWKEQRAAQKADVLTTGAGNPVGDKLNVITVGPRGPLLVQDVVFTDEMAHFDRERIPERVVHAKGAGAFGYFEVTHDITKYSKAKVFEHIGKKTPIAVRFSTVAGESGSADTVRDPRGFAVKFYTEDGNWDLVGNNTPIFFIRDPILFPSFIHSQKRNPQTHLKDPDMVWDFWSLRPESLHQVSFLFSDRGIPDGHRHMNGYGSHTFKLVNANGEAVYCKFHYKTDQGIKNLSVEDAARLSQEDPDYGIRDLFNAIATGKYPSWTFYIQVMTFNQAETFPFNPFDLTKVWPHKDYPLIPVGKLVLNRNPVNYFAEVEQIAFDPSNMPPGIEASPDKMLQGRLFAYPDTHRHRLGPNYLHIPVNCPYRARVANYQRDGPMCMQDNQGGAPNYYPNSFGAPEQQPSALEHSIQYSGEVRRFNTANDDNVTQVRAFYVNVLNEEQRKRLCENIAGHLKDAQIFIQKKAVKNFTEVHPDYGSHIQALLDKYNAEKPKNAIHTFVQSGSHLAAREKANL

The target in the assay “catalase (CAT)” is B3. In words: co-IP.
For assay [1], the target named is Cu/Zn superoxide dismutase (SOD1) (human (endogenous in HeLa), UniProt P00441 1-154). In words: co-IP.
Cu/Zn superoxide dismutase (SOD1), sequence (P00441 whole entry): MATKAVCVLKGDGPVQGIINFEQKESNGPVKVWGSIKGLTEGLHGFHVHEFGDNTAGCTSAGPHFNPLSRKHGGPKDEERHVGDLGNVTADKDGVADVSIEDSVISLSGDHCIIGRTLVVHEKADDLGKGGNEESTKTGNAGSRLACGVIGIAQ

B1: peroxiredoxin 2 (PRDX2) (natural protein, human (endogenous in HeLa), UniProt P32119 1-198, looked up)
chain: MASGNARIGKPAPDFKATAVVDGAFKEVKLSDYKGKYVVLFFYPLDFTFVCPTEIIAFSNRAEDFRKLGCEVLGVSVDSQFTHLAWINTPRKEGGLGPLNIPLLADVTRRLSEDYGVLKTDEGIAYRGLFIIDGKGVLRQITVNDLPVGRSVDEALRLVQAFQYTDEHGEVCPAGWKPGSDTIKPNVDDSKEYFSKHN
In the case of B1, in the assay with catalase (CAT), the “co-precipitated amount after H2O2 treatment, percent of control” value (shortened to “co-precipitated amount … percent of control”) worked out at 139%.

B2: PRIM2 (a DNA primase subunit) (natural protein, human (endogenous in HeLa), UniProt P49643 1-509, looked up)
chain: MEFSGRKWRKLRLAGDQRNASYPHCLQFYLQPPSENISLIEFENLAIDRVKLLKSVENLGVSYVKGTEQYQSKLESELRKLKFSYRENLEDEYEPRRRDHISHFILRLAYCQSEELRRWFIQQEMDLLRFRFSILPKDKIQDFLKDSQLQFEAISDEEKTLREQEIVASSPSLSGLKLGFESIYKIPFADALDLFRGRKVYLEDGFAYVPLKDIVAIILNEFRAKLSKALALTARSLPAVQSDERLQPLLNHLSHSYTGQDYSTQGNVGKISLDQIDLLSTKSFPPCMRQLHKALRENHHLRHGGRMQYGLFLKGIGLTLEQALQFWKQEFIKGKMDPDKFDKGYSYNIRHSFGKEGKRTDYTPFSCLKIILSNPPSQGDYHGCPFRHSDPELLKQKLQSYKISPGGISQILDLVKGTHYQVACQKYFEMIHNVDDCGFSLNHPNQFFCESQRILNGGKDIKKEPIQPETPQPKPSVQKTKDASSALASLNSSLEMDMEGLEDYFSEDS
For the molecule B2, the figures for the “co-precipitated amount after H2O2 treatment, percent of that without H2O2” value (with catalase (CAT); in assay [1]) were 175% and 130%, respectively.
As to B3, the “co-precipitated amount … percent of control” value in assay [1] turned out to be 170%.

B4: glyceraldehyde-3-phosphate dehydrogenase (GAPDH) (natural protein)
chain: not shown
As for B4, in assay [1], the “co-precipitated amount … percent of control” value worked out at 180%.

B5: POLD1 (a DNA polymerase subunit) (natural protein, human (endogenous in HeLa), UniProt P28340 1-1107, looked up)
chain: MDGKRRPGPGPGVPPKRARGGLWDDDDAPRPSQFEEDLALMEEMEAEHRLQEQEEEELQSVLEGVADGQVPPSAIDPRWLRPTPPALDPQTEPLIFQQLEIDHYVGPAQPVPGGPPPSRGSVPVLRAFGVTDEGFSVCCHIHGFAPYFYTPAPPGFGPEHMGDLQRELNLAISRDSRGGRELTGPAVLAVELCSRESMFGYHGHGPSPFLRITVALPRLVAPARRLLEQGIRVAGLGTPSFAPYEANVDFEIRFMVDTDIVGCNWLELPAGKYALRLKEKATQCQLEADVLWSDVVSHPPEGPWQRIAPLRVLSFDIECAGRKGIFPEPERDPVIQICSLGLRWGEPEPFLRLALTLRPCAPILGAKVQSYEKEEDLLQAWSTFIRIMDPDVITGYNIQNFDLPYLISRAQTLKVQTFPFLGRVAGLCSNIRDSSFQSKQTGRRDTKVVSMVGRVQMDMLQVLLREYKLRSYTLNAVSFHFLGEQKEDVQHSIITDLQNGNDQTRRRLAVYCLKDAYLPLRLLERLMVLVNAVEMARVTGVPLSYLLSRGQQVKVVSQLLRQAMHEGLLMPVVKSEGGEDYTGATVIEPLKGYYDVPIATLDFSSLYPSIMMAHNLCYTTLLRPGTAQKLGLTEDQFIRTPTGDEFVKTSVRKGLLPQILENLLSARKRAKAELAKETDPLRRQVLDGRQLALKVSANSVYGFTGAQVGKLPCLEISQSVTGFGRQMIEKTKQLVESKYTVENGYSTSAKVVYGDTDSVMCRFGVSSVAEAMALGREAADWVSGHFPSPIRLEFEKVYFPYLLISKKRYAGLLFSSRPDAHDRMDCKGLEAVRRDNCPLVANLVTASLRRLLIDRDPEGAVAHAQDVISDLLCNRIDISQLVITKELTRAASDYAGKQAHVELAERMRKRDPGSAPSLGDRVPYVIISAAKGVAAYMKSEDPLFVLEHSLPIDTQYYLEQQLAKPLLRIFEPILGEGRAEAVLLRGDHTRCKTVLTGKVGGLLAFAKRRNCCIGCRTVLSHQGAVCEFCQPRESELYQKEVSHLNALEERFSRLWTQCQRCQGSLHEDVICTSRDCPIFYMRKKVRKDLEDQEQLLRRFGPPGPEAW
In the case of B5, in the assay with catalase (CAT), the “co-precipitated amount after H2O2 treatment, percent of that without H2O2” value was 190%.
